Measured values taken from paper doi:10.1101/2023.12.06.570360.

Target: Htz1(T46C)-2xFLAG (yeast histone H2A.Z with a cysteine probe) (S. cerevisiae)
Experiment: cross-linking

Row | percent of bulk H2A.Z in the H2A-to-H2A.Z cross-linked adduct (WT cells) [%] | percent of bulk H2A.Z in the H2A.Z-to-H2A.Z cross-linked adduct (WT cells) [%] | Substance
1 | 57 |  | Hta1(N39C) (yeast histone H2A with a cysteine probe) (natural protein)
2 |  | 12 | Htz1(T46C)-2xFLAG (yeast histone H2A.Z with a cysteine probe) (natural protein)
